Source: US20210317231A1 (BYONDIS B V, published 2021)
Like-named read-outs stand apart in the source and are kept apart here.

Assays:
[1] = biological target: T1, human 5T4 oncofoetal antigen (human, UniProt Q13641 32-420); experiment: flow cytometry, PA-1 cells
T1 construct: whole, on cells; also called hu 5T4; human 5T4 antigen
T1 sequence (looked up): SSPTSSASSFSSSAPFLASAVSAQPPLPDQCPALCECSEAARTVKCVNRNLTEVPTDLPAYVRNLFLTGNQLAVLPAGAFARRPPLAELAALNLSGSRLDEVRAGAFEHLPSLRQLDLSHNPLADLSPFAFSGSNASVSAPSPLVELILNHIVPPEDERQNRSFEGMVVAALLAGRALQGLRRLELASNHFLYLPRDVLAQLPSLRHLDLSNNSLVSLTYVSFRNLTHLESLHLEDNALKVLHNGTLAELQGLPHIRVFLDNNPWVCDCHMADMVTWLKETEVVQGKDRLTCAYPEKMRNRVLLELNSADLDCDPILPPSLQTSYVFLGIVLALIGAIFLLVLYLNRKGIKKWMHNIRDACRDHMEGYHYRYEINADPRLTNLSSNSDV
Experimental: (§1) 17 antibodies were selected and affinity to 5T4 antigen was measured using MDA-MB-468 cells, PA-1 cells and Chinese Hamster Ovary (CHO) mammalian cells expressing human or cyno 5T4 antigen (Table 2). In the current application the utilized CHO cells are referred to as CHOZN as these CHO cells expressing human or cyno 5T4 antigen were obtained using the CHOZN® Platform of Sigma-Aldrich. CHOZN cells (SAFC) were transiently transfected, using an Amaxa nucleofector device (Lonza) according to the manufacturer's instructions. Standard, commercially available mammalian expression vectors (SAFC, Life Technologies) were used, which contained the full length human and cyno 5T4 antigen coding sequence (according to accession number NP 006661.1 and Q4R8Y9 respectively), preceded by a human CMV promoter. Transiently transfected CHOZN cells were cultured according the manufacturer's instructions, before being used in antibody binding studies. The 17 selected antibodies are characterised by the amino acid sequences according to the following table (Table 1).
(§2) MDA-MB-468 cells, PA-1 cells or CHOZN cells expressing human or cyno 5T4 antigen (100,000 cells/well in a 96-well plate) were washed three times with ice-cold FACS buffer (1×PBS (Lonza) containing 0.2% v/w BSA (Sigma-Aldrich, St. Louis, Mo.)) and 0.02% v/w NaN3 (Sigma-Aldrich), followed by the addition of a concentration range of each primary mAb (50 μl/well) diluted in ice-cold FACS buffer. After an incubation of 30 minutes at 4° C., cells were washed three times with ice-cold FACS buffer and 50 μl/well secondary mAb (AffiniPure F(ab′)2 fragment Goat-anti-human IgG-APC, 1:6,000 dilution, Jackson Immuno Research) was added. After 30 minutes at 4° C., cells were washed twice and resuspended in 150 μl FACS buffer. Fluorescence intensities were determined by flow cytometry (BD FACSVerse, Fanklin Lakes, N.J.) and indicated as the median fluorescence intensity (MFI). Curves were fitted by nonlinear regression using the sigmoidal dose-response equation with variable slope (four parameters) in GraphPad Prism (version 5.01/6.01 for Windows, GraphPad, San Diego, Calif.). EC₅₀ values were calculated as the concentration in μg/ml that gives a response half way between bottom and top of the curve, when using a 4 parameter logistic fit.

[2] = biological target: T2, cynomolgus monkey 5T4 antigen (cynomolgus monkey, UniProt Q4R8Y9 35-420); experiment: flow cytometry, CHOZN cells expressing cyno 5T4
T2 construct: whole, on cells; also called cyno 5T4
T2 sequence (looked up): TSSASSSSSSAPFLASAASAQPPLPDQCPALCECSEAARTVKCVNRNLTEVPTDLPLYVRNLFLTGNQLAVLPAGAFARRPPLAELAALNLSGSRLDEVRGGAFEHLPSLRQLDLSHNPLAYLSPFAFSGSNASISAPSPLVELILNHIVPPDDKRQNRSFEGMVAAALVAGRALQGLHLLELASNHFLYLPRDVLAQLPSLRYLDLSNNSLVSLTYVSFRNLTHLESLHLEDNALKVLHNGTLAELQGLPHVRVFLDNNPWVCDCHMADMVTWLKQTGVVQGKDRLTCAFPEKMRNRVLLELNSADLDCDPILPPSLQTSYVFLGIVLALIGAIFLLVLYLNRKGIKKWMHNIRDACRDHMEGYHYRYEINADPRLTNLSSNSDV
Experimental: as §2

[3] = biological target: T1, human 5T4 oncofoetal antigen; experiment: flow cytometry, MDA-MB-468 cells
Experimental: as §1, §2

[4] = biological target: T1, human 5T4 oncofoetal antigen; experiment: flow cytometry, CHOZN cells expressing hu 5T4
Experimental: as §1, §2

[5] = biological target: T2, cynomolgus monkey 5T4 antigen; experiment: flow cytometry, CHOZN cells expressing cyno 5T4; remark: listed apart in the source
Experimental: as §1, §2

[6] = biological target: T1, human 5T4 oncofoetal antigen; experiment: flow cytometry, CHOZN cells expressing hu 5T4; remark: listed apart in the source
[7] = biological target: T2, cynomolgus monkey 5T4 antigen; experiment: flow cytometry, CHOZN cells expressing cyno 5T4; remark: listed apart in the source

Binder | EC50 [1] [µg/mL] | fold improvement of binding compared to H8 on cyno 5T4 [2] [fold] | EC50 [3] [µg/mL] | EC50 [4] [µg/mL] | EC50 [5] [µg/mL] | EC50 [6] [µg/mL] | EC50 [7] [µg/mL]
chimeric anti-5T4 monoclonal antibody 828 (antibody, human IgG1, V domains shown) VH: QSVEESGGRLVTPGTPLTLTCTVSEIDLSTYAMSWVRQAPGKGLEWIGIISAGGSAYYASWAKGRFTISRTSTTVDLKMTSLTTEDTATYFCARGAAYAGYTYGFSFFDIWGPGTLVTVSL VL: DIVMTQTPSSVSAAVGGTVTINCQASQNIYSNLAWYQQKPGQRPKLLIYGASNLESGVPSRFKGSGSGTEYTLTISDLESDDAATYYCQSIDYGNNYLGSFGGGTEVVVK | 0.1 | 7 | 0.1 | 0.19 | 0.82 |  | 
chimeric anti-5T4 monoclonal antibody 908 (antibody, human IgG1, V domains shown) VH: QSVEESGGRLVTPGTPLTLTCTVSGFSLSNFAMSWVRQAPGKGLEWIGIINGYGSIYYATWAKGRFTISKTSTTVDLKITSPTTEDTATYFCARGDAGRTYNHYFNIWGPGTLVTVSL VL: DVVMTQTPASVEAAVGGTVTIKCQASQSISSWLSWYQQKPGQRPKLLIYAASNLASGVPSRFKGSGSGTQFTLTISDLESDDAATYYCQQGYTSYNVDNAFGGGTEVVVK | 0.04 | 32 | 0.21 | 0.23 | 0.24 |  | 
chimeric anti-5T4 antibody 899 with HC-41C mutation (antibody, human IgG1, V domains shown, Human IgG1 constant parts; also called chimeric 899; 899 chimeric) VH: QSVEESGGRLVTPGTPLTLTCTVSGFSLSSYTMSWVRQACGKGLEYIGIISSSDGTWYANWVKGRFTISKTSTTVDLKMTSLTTEDTATYFCARDGTGNKYYTWDRLDLWGQGTLVTVSS VL: NIVMTQTPSPVSGAVGGTVTINCQASQSIYNELSWYQQKPGQPPKLLIYYASTLASGVSSRFKGSGSGTQFTLTISGVESVDAATYYCQQGYSSSNVDNVFGGGTEVVVK |  |  |  |  |  | 0.14 | 0.18
chimeric anti-5T4 monoclonal antibody 811 (antibody, human IgG1, V domains shown) VH: QSVEESGGRLVTPGTSLTLTCTASGFSLSTYAMIWVRQAPGKGLEWIGIINSSGYTYYANWAKGRFTISKTSTTVDLKITSPTTEDTATYFCARGNAGISYDVSFNLWGQGTLVTVSS VL: AYDMTQTPASVEAGVGGTVTINCQASESISSWLAWYQQKPGQPPNLLIYEASKLASGVPSRFSGSGSGTEFTLTISGVESADAATYYCQQGWTSSNIDNAFGGGTEVVVK | 0.4 | 32 | 0.73 | 0.34 | 0.25 |  | 
chimeric anti-5T4 monoclonal antibody 847 (antibody, human IgG1, V domains shown) VH: QSVEESGGRLVTPGTPLTLTCTVSGFSLSSYDMSWVRQAPGKGLEYIGYINSDGSAYYASWAKGRFTISKTSSTTVDLKITSPTTEDTATYFCARDAGSTYLYGMDPWGPGTLVTVSS VL: DVVMTQTPASVSEPVGGTVTINCQASQSIYSYLAWYQQKPGQRPKLLIYAASTLASGVSSRFKGSGSGTQFTLTISDLESADAATYYCQCTYYGGTFNTFGGGTEVVVK | 0.22 | 32 | 0.2 | 0.22 | 0.2 |  | 
humanized anti-5T4 antibody 833a with HC-41C mutation (antibody, human IgG1, kappa, V domains shown) VH: EVQLVESGGGLIQPGGSLRLSCAASGIDLSHYVVGWVRQACGKGLEWVSIIYGSGRTYYANWAKGRFTISKDNSKNTLYVRMNSLRAEDTAVYYCARDASVSVYYWGYFDLWGQGTLVTVSS VL: AYDMTQSPSSVSASVGDRVTITCQASQSIGSELAWYQQKPGKAPKLLIYRASTLESGVPSRFSGSGSGTDFTLTISSLQPEDFATYYCQQGYTYSEIDNAFGGGTKVEIKR |  |  |  |  |  | 0.22 | 0.12
humanized anti-5T4 antibody 833c with HC-41C mutation (antibody, human IgG1, kappa, V domains shown) VH: EVQLEESGGGLVKPGGSLRLSCAASGIDLSHYVVGWVRQACGKGLEWVSIIYGSGRTYYANWAKGRFTISRDNSKNTLYLQMNSLRAEDTAVYYCARDASVSVYYWGYFDLWGRGTLVTVSS VL: DIQMTQSPSTLSASVGDRVTITCQASQSIGSELAWYQQKPGKAPKLLIYRASTLESGVPSRFSGSGSGTEFTLTISSLQPDDFATYYCQQGYTYSEIDNAFGQGTKVEIKR |  |  |  |  |  | 0.18 | 0.17
humanized anti-5T4 antibody 833b with HC-41C mutation (antibody, human IgG1, kappa, V domains shown) VH: EVQLVESGGGLVQPGGSLRLSCAASGIDLSHYVVGWVRQACGKGLEWVSIIYGSGRTYYANWAKGRFTISRDNSKNTLFLRMNSLRVEDTAVYFCARDASVSVYYWGYFDLWGQGTLVTVSS VL: AYDMTQSPSSVSASVGDRVTITCQASQSIGSELAWYQQKPGKAPKLLIYRASTLESGVPSRFSGSGSGTDFTLTISSLQPEDFATYYCQQGYTYSEIDNAFGGGTKVEIKR |  |  |  |  |  | 0.15 | 0.18
humanized anti-5T4 antibody 789c with HC-41C mutation (antibody, V domains shown) VH: QSVEESGGGLVQPGGSLRLSCAASGFSLSSYWMSWVRQACGKGLEWIGIIAGRGSTYYASWAKGRFTISRDNSKNTLYLQMNSLRAEDTAVYYCARVSSIYYTFNLWGQGTLVTVSS VL: DIVMTQSPDSLAVSLGERATINCQSSQSVYSNNELSWYQQKPGQPPKLLIYYASTLASGVPDRFSGSGSGTDFTLTISSLQAEDVAVYYCQGSYYSGSGWYYAFGGGTKLEIKR |  |  |  |  |  | 0.2 | 0.21
prior art anti-5T4 antibody H8 (H8 humanized variant 1) (antibody, human IgG1, kappa, V domains shown) VH: QVQLVQSGAEVKKPGASVKVSCKASGYSFTGYYMHWVKQSPGQGLEWIGRINPNNGVTLYNQKFKDRVTMTRDTSISTAYMELSRLRSDDTAVYYCARSTMITNYVMDYWGQGTLVTVSS VL: DIVMTQSPDSLAVSLGERATINCKASQSVSNDVAWYQQKPGQSPKLLISYTSSRYAGVPDRFSGSGSGTDFTLTISSLQAEDVAVYFCQQDYNSPPTFGGGTKLEIKR |  |  |  |  | 8.11 |  | 1.99
humanized anti-5T4 antibody 789a with HC-41C mutation (antibody, V domains shown) VH: EVKVEESGGGLVQPGGSLRLSCAASGFSLSSYWMSWVRQACGKGLEWVSIIAGRGSTYYASWAKGRFTISKDNSEGMVYLQMNSLRAEDTAVYYCARVSSIYYTFNLWGQGTTVTVSS VL: EIVLTQSPSSLSASVGDRVTITCQSSQSVYSNNELSWYQQKPGKAPKLLIYYASTLASGVPSRFSGSGSGTDFTLTISSLQPEDFATYYCQGSYYSGSGWYYAFGQGTKLEIKR |  |  |  |  |  | 0.2 | 0.33
humanized anti-5T4 antibody 789b with HC-41C mutation (antibody, V domains shown) VH: EVQLLESGGSLVLPGGSLRLSCAASGFSLSSYWMSWVRQACGKGLEWVSIIAGRGSTYYASWAKGRFTISRDNSKNTLYMQMNSLRAEDTALYFCARVSSIYYTFNLWGQGTLVTVSS VL: EIVLTQSPSSLSASVGDRVTITCQSSQSVYSNNELSWYQQKPGKAPKLLIYYASTLASGVPSRFSGSGSGTDFTLTISSLQPEDFATYYCQGSYYSGSGWYYAFGQGTKLEIKR |  |  |  |  |  | 0.15 | 0.24
humanized anti-5T4 antibody 789d with HC-41C mutation (antibody, V domains shown) VH: QSVEESGGGLVQPGGSLRLSCAASGFSLSSYWMSWVRQACGKGLEWIGIIAGRGSTYYASWAKGRFTISRDNSKNTLYLQMNSLRAEDTAVYYCARVSSIYYTFNLWGQGTLVTVSS VL: AQVLTQSPSSLSASVGDRVTITCQSSQSVYSNNELSWYQQKPGKAPKLLIYYASTLASGVPSRFSGSGSGTDFTLTISSLQPEDFATYYCQGSYYSGSGWYYAFGGGTKVEIKR |  |  |  |  |  | 0.12 | 0.15
